Laboratory results as given in US20120316071A1 (published 2012).
Residue numbers refer to the chain shown, from its start. Numbers in names are those of the source.

What was measured:
[1] = biological target: T1, rHuman EGF R/Fc Chimera, CF (human, UniProt P00533 25-645); assay: ECL multispot (MSD) assay, antigen spotted on the plate, Fab in solution; blank spot of the same well 331
T1 construct: Bought from R&D Systems; also called epidermal growth factor receptor; Fc part of the bought chimera not given

[2] = biological target: T2, rHuman ErbB2/Fc Chimera, CF (human, UniProt P04626 23-652); assay: as above
T2 construct: Bought from R&D Systems; also called human epidermal growth factor 2 receptor; Fc part of the bought chimera not given

[3] = biological target: T3, rHuman Erythropoietin R/Fc Chimera, CF (human, UniProt P19235 25-250); assay: as above
T3 construct: Bought from R&D Systems; also called EPO R; EPO R/Fc; Fc part of the bought chimera not given
T3 sequence (looked up): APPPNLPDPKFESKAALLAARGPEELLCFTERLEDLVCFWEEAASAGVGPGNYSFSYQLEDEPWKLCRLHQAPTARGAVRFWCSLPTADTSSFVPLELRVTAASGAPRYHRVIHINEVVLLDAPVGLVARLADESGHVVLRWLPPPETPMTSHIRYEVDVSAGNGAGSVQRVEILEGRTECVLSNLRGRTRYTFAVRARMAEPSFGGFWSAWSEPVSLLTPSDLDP

[4] = biological target: T4, Recombinant Human DLL4 (human, UniProt Q9NR61 27-524); assay: as above
T4 construct: Bought from R&D Systems; also called delta-like protein 4; rHuman DLL4
Method: (§1) An 150 μl aliquot of 1% Bovine Serum Albumin (BSA) in Tris-buffered Saline Tween (TBST) was added to each well and allowed to incubate for 30 min at 20° C. followed by washing and tap drying to completely remove any residual solution. Subsequently, a 12.5 μl aliquot of 1% BSA TBST was added to each well followed by the addition of a 12.5 μl aliquot of a purified Fab. The plate was sealed and incubated for 1 hour at 20° C. with shaking
(§2) TAG-detection antibody at 25 μl was added to each well and allowed to incubate for 1 hour at 20° C. with shaking. Finally, 15 μl of Read Buffer P with Surfactant (Cat # R92PC-1, Meso Scale Discovery) was added to each well. The electrochemiluminescence was measured using a Sector Imager 2400 (Meso Scale Discovery). Data was analyzed by comparing the ECL signals for an antigen to the blank of each well. A signal to blank ratio of 4 or more was considered a “Hit” Fab.

[5] = biological target: T5, rHuman IGF-1 sR, (IGF-1 sR), CF (human, UniProt P08069 31-932); assay: as above
T5 construct: Bought from R&D Systems as a soluble receptor; also called insulin-like growth factor-1 soluble receptor
Method: as §1, §2

[6] = biological target: T6, rHuman Notch-1/Fc Chimera, CF (human, UniProt P46531 19-526); assay: as above
T6 construct: Bought from R&D Systems; Fc part of the bought chimera not given

[7] = biological target: T7, rHuman P-Cadherin/Fc Chimera, CF (human, UniProt P22223 108-654); assay: ECL multispot (MSD) assay, antigen spotted on the plate, Fab in solution; blank spot of the same well 231
T7 construct: Bought from R&D Systems; Fc part of the bought chimera not given

[8] = biological target: T1, rHuman EGF R/Fc Chimera, CF; assay: as above
Method: as §1, §2

[9] = biological target: T2, rHuman ErbB2/Fc Chimera, CF; assay: as above
Method: as §1, §2

[10] = biological target: T3, rHuman Erythropoietin R/Fc Chimera, CF; assay: as above
Method: as §1, §2

[11] = biological target: T4, Recombinant Human DLL4; assay: as above
Method: as §1, §2

[12] = biological target: T5, rHuman IGF-1 sR, (IGF-1 sR), CF; assay: as above
Method: as §1, §2

[13] = biological target: T8, rHuman HGF R/c-MET/Fc Chimera, CF (human, UniProt P08581 25-932); assay: as above
T8 construct: Bought from R&D Systems; also called HGF R/Fc; hepatocyte growth factor receptor; Fc part of the bought chimera not given
T8 sequence (P08581 25-932, change not shown): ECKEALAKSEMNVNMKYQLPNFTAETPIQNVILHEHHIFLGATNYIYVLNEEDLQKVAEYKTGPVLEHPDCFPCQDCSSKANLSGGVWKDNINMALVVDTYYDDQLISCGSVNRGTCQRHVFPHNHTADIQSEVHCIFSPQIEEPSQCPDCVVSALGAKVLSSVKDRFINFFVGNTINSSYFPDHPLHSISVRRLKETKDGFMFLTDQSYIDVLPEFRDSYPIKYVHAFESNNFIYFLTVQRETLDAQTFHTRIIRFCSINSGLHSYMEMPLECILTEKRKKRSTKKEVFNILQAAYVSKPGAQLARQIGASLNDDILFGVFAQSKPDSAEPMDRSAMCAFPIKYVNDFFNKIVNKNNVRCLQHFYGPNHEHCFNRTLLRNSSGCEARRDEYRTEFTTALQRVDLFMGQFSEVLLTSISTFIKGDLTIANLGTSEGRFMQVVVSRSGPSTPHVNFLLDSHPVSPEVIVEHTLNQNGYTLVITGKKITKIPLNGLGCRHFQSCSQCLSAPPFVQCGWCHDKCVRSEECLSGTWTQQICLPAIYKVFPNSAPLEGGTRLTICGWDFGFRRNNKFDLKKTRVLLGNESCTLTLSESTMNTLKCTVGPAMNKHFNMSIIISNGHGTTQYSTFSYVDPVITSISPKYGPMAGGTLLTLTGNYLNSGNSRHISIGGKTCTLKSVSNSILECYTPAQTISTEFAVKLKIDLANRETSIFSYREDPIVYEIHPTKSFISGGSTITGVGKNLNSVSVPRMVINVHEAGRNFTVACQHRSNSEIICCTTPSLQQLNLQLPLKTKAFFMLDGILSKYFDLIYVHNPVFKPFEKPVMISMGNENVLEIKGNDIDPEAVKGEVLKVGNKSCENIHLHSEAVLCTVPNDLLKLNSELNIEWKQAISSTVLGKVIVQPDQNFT

[14] = biological target: T6, rHuman Notch-1/Fc Chimera, CF; assay: as above
Method: as §1, §2

[15] = biological target: T9, rHuman CD44/Fc Chimera, CF (human, UniProt P16070 21-220); assay: as above
T9 construct: Bought from R&D Systems; Fc part of the bought chimera not given

[16] = biological target: T7, rHuman P-Cadherin/Fc Chimera, CF; assay: ECL multispot (MSD) assay, antigen spotted on the plate, Fab in solution; blank spot of the same well 407
Method: as §1, §2

[17] = biological target: T1, rHuman EGF R/Fc Chimera, CF; assay: as above
Method: as §1, §2

[18] = biological target: T2, rHuman ErbB2/Fc Chimera, CF; assay: as above
Method: as §1, §2

[19] = biological target: T3, rHuman Erythropoietin R/Fc Chimera, CF; assay: as above
Method: as §1, §2

[20] = biological target: T4, Recombinant Human DLL4; assay: as above
Method: as §1, §2

[21] = biological target: T5, rHuman IGF-1 sR, (IGF-1 sR), CF; assay: as above
Method: as §1, §2

[22] = biological target: T8, rHuman HGF R/c-MET/Fc Chimera, CF; assay: as above
Method: as §1, §2

[23] = biological target: T6, rHuman Notch-1/Fc Chimera, CF; assay: as above
Method: as §1, §2

[24] = biological target: T9, rHuman CD44/Fc Chimera, CF; assay: as above
Method: as §1, §2

[25] = biological target: T7, rHuman P-Cadherin/Fc Chimera, CF; assay: ECL multispot (MSD) assay, antigen spotted on the plate, Fab in solution; blank spot of the same well 284
Method: as §1, §2

[26] = biological target: T1, rHuman EGF R/Fc Chimera, CF; assay: as above
Method: as §1, §2

[27] = biological target: T2, rHuman ErbB2/Fc Chimera, CF; assay: as above
Method: as §1, §2

[28] = biological target: T4, Recombinant Human DLL4; assay: as above
Method: as §1, §2

[29] = biological target: T5, rHuman IGF-1 sR, (IGF-1 sR), CF; assay: as above
Method: as §1, §2

[30] = biological target: T8, rHuman HGF R/c-MET/Fc Chimera, CF; assay: as above
Method: as §1, §2

[31] = biological target: T6, rHuman Notch-1/Fc Chimera, CF; assay: as above
Method: as §1, §2

[32] = biological target: T9, rHuman CD44/Fc Chimera, CF; assay: as above
Method: as §1, §2

B1: Fab VH1-46_IGHD6-6*01_IGHJ1*01 S102A/S103P/S104F/H111F (APFF) & L6_IGKJ1*01 S31E (Fab, V domains shown)
VH: QVQLVQSGAEVKKPGASVKVSCKASGYTFTSYYMHWVRQAPGQGLEWMGIINPSGGSTSYAQKFQGRVTMTRDTSTSTVYMELSSLRSEDTAVYYCAREEYAPFSAEYFQFWGQGTLVTVSS
VL: EIVLTQSPATLSLSPGERATLSCRASQSVSEYLAWYQQKPGQAPRLLIYDASNRATGIPARFSGSGSGTDFTLTISSLEPEDFAVYYCQQRSNWPPWTFGQGTKVEIKR
notes: Tested as an E. coli Fab; The heavy chain carries CH1 with His6 and Flag tags from plasmid A, the light chain a kappa CL from plasmid C; also called APFF / S31E; H:APFF & L6_IGKJ1*01 S31E
B1 gave an ECL signal [1] of 297, an ECL signal [2] of 313 and an ECL signal [3] of 441. It also gave an ECL signal [4] of 171000, an ECL signal [5] of 367 and an ECL signal [6] of 460.

B2: Fab VH1-46_IGHD6-6*01_IGHJ1*01 S102A/S103P/S104F/H111F (APFF) & L6_IGKJ1*01 S31G (Fab, V domains shown)
VH: B1 VH
VL: B1 VL with E31G
notes: Tested as an E. coli Fab; The heavy chain carries CH1 with His6 and Flag tags from plasmid A, the light chain a kappa CL from plasmid C; also called APFF / S31G; H:APFF & L6_IGKJ1*01 S31G
B2 was tested, and the ECL signal [7] was 384, the ECL signal [8] was 391 and the ECL signal [9] was 311. It also gave an ECL signal [10] of 414, an ECL signal [11] of 65500 and an ECL signal [12] of 301. The ECL signal [13] was 378, the ECL signal [14] was 426 and the ECL signal [15] was 381.

B3: Fab VH1-46_IGHD6-6*01_IGHJ1*01 S102A/S103P/S104F/H111F (APFF) & L6_IGKJ1*01 S31Q (Fab, V domains shown)
VH: B1 VH
VL: B1 VL with E31Q
notes: Tested as an E. coli Fab; The heavy chain carries CH1 with His6 and Flag tags from plasmid A, the light chain a kappa CL from plasmid C; also called APFF / S31Q; H:APFF & L6_IGKJ1*01 S31Q
Binder B3 has an ECL signal [16] of 379, an ECL signal [17] of 390 and an ECL signal [18] of 392. It also gave an ECL signal [19] of 548, an ECL signal [20] of 165000 and an ECL signal [21] of 415. It also gave an ECL signal [22] of 329, an ECL signal [23] of 383 and an ECL signal [24] of 438.

B4: Fab VH1-46_IGHD6-6*01_IGHJ1*01 S102A/S103P/S104F/H111F (APFF) & L6_IGKJ1*01 S31Y (Fab, V domains shown)
VH: B1 VH
VL: B1 VL with E31Y
notes: Tested as an E. coli Fab; The heavy chain carries CH1 with His6 and Flag tags from plasmid A, the light chain a kappa CL from plasmid C; also called APFF / S31Y; H:APFF & L6_IGKJ1*01 S31Y
B4 showed an ECL signal [25] of 361, an ECL signal [26] of 320 and an ECL signal [27] of 236. For the same binder, the ECL signal [28] was 188000, the ECL signal [29] was 293 and the ECL signal [30] was 197. It also gave an ECL signal [31] of 351 and an ECL signal [32] of 445.
